T1: Ets-1ΔN331 (minimal ETS domain) (mouse (murine)?, UniProt P27577 331-440)
T1 sequence: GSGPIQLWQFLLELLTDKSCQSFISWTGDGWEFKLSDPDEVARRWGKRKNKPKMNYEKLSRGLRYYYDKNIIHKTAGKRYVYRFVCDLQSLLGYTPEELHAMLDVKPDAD


Key:
PU.1ΔN167 (ETS domain) = PU.1ΔN167 (ETS domain) (mouse (murine), UniProt P17433 167-272); assay: competitive fluorescence anisotropy
[1] = molecular target: T1, Ets-1ΔN331 (minimal ETS domain); assay: competitive fluorescence anisotropy

Binder | Kd (PU.1ΔN167 (ETS domain)) [nM] | Kd [1] [nM]
SC1 unmethylated (dsDNA) DNA 1: CGGCCAAGCCGGAAGTGAGTGCC DNA 2: GGCACTCACTTCCGGCTTGGCCG | 0.32 ± 0.17 | 0.14 ± 0.03
SC1 hemi-methylated, forward (5'-GGAA-3' strand) (dsDNA, 5-methyl-dC at strand 1 position 10 (CpG)) DNA 1: CGGCCAAGCCGGAAGTGAGTGCC DNA 2: GGCACTCACTTCCGGCTTGGCCG | 1.5 ± 0.9 | 
